This passage reports Kd and IC50 results from patent publication US20070254831A1 (published 2007).

Read-outs that look alike come from different tables or passages of the source. Bridge positions count the residues as written; N and C are the ends. Square brackets hold non-standard residues; d marks the D form. Ends that are not written are not given here.

In assay [1] the target is T1, soluble human FcRn (human, UniProt P55899 24-297; P61769 21-119, biotinylated (Sulfo-NHS-LC-Biotin) in the ELISA; amine-coupled to CM5 chip in SPR).
T1 construct: also called shFcRn; biotinylated shFcRn
T1 sequence (P55899 24-297 limits assumed, chain 1 of 2): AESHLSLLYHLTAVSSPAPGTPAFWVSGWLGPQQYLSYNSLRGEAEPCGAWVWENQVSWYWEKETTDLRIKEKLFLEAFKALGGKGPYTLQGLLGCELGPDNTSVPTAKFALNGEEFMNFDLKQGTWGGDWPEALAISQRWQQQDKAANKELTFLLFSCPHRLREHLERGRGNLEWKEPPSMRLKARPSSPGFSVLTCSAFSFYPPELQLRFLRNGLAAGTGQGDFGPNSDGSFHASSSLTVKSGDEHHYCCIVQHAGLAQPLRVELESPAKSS
T1 sequence (P61769 21-119 limits assumed, chain 2 of 2): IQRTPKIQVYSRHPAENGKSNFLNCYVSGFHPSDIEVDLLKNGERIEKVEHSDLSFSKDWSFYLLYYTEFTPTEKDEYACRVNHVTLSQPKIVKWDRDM
The assay can be described thus: SPR, pH 6.
Procedure: The following steps were performed to cross-link soluble human or cynomolgus FcRn to the dextran surface of a CM5 sensor chip (Biacore AB, Uppsala, Sweden) by an amine coupling reaction involving 1-ethyl-(3-dimethylaminopropyl)-carbodiimide hydrochloride (EDC) (Biacore AB, Uppsala, Sweden) and N-hydroxysuccinimide (NHS) (Biacore AB, Uppsala, Sweden) as recommended by Biacore (BIAapplications Handbook, version AB, section 4.2, Biacore AB, Uppsala, Sweden). […] Residual sites on the FcRn flow cell were blocked with 1 M ethanolamine hydrochloride pH 8.5 (Biacore AB, Uppsala, Sweden). A control flow cell was blocked with ethanolamine for reference subtraction. For analysis of the monomeric peptides, FcRn was coated to a final density of 4000-5000 response units (RU). For analysis of the peptide dimers, FcRn was coated to a density of 2000-2500 RU. All SPR measurements were performed using a BIACORE 3000 Instrument (Biacore AB Uppsala, Sweden). For measurements done at either pH 6 or pH 7.4, experiments were performed in 50 mM phosphate, 100 mM sodium chloride, 0.01% surfactant P20 (Biacore AB, Uppsala, Sweden).
Ten, 2-fold dilutions of the peptide were injected over the FcRn-CM5 chip at a rate of 20 μl/min for 2 min. The peptide was dissociated from the chip for 2.5 minutes with buffer. Any remaining peptide was removed from the chip with a 30 second injection of HBS-P buffer (Biacore AB, Uppsala, Sweden) at a rate of 30 μl/min. Sensorgrams were generated and analyzed using BiaEval software version 3.1 (Biacore AB, Uppsala, Sweden). The equilibrium RU observed for each injection was plotted against concentration. The equilibrium KD values were derived by analysis of the plots using the steady state affinity model included in the BiaEval software.

The target of assay [2] is T1, soluble human FcRn. The assay can be described thus: ELISA, competitor human IgG. For orientation: In an ELISA, binding on a coated surface is turned into a signal by an enzyme label.
Procedure: (§1) The wells were coated with 100 μl/well of 1 μg/ml biotinylated-shFcRn in Buffer A. The plate was sealed and incubated at 37° C. for 2 hours. Afterwards, the plate washed with 200 μl/well of Buffer B (Buffer B: 100 mM MES pH 6, 150 mM NaCl, 0.5% BSA IgG-free (Jackson ImmunoResearch, West Grove, Pa.), 0.05% Tween-20). […] To allow for mixing, the plate was rocked for 2 minutes, sealed and incubated at 37° C. for 2 hours. […] The plate was covered, incubated for 30 minutes at room temperature and washed 4 times with 200 μl/well of ice-cold buffer B. SureBlue TMB substrate solution (100 μl/well, KPL, Gaithersburg, Md.) was added and the plate was allowed to incubate at room temperature until color developed, which took 5 to 10 minutes. Once color developed, 100 μl/well of TMB stop solution (KPL, Gaithersburg, Md.) was added and the absorbance was measured at 450 nm. The data was plotted as absorbance vs. peptide concentration to derive the inhibitory concentration 50% (IC₅₀) values.
Assay [3] deals with T1, soluble human FcRn. As to the kind of experiment: ELISA, competitor human IgG. This is another data set of the same source.
Procedure: as §1
For assay [4], the target named is T1, soluble human FcRn. As to the kind of experiment: ELISA, competitor human IgG. The source holds these as a separate data set.
Procedure: as §1
Assay [5] deals with T1, soluble human FcRn. The assay can be described thus: ELISA, competitor human IgG. The source holds these as a separate data set.
Procedure: as §1

By Kd is commonly meant the free concentration of one partner at which half of the binding sites on the other are occupied at equilibrium, for simple one-to-one binding. A lower Kd goes with higher affinity. In the assay with soluble human FcRn [1], QRFXTGHXGGLYPCNGP (Pen at 4; 4-amino-Phe at 8; disulfide; C-terminal amide) [Peptide No. 55] registered a Kd of 1 µM.
As a reminder, the IC50 is the concentration at which inhibition is half-maximal. In the assay with soluble human FcRn [2], RFXTGHFXLYPC (Pen at 3; X at 8 = 6,5-bicyclic dipeptide mimic; disulfide; C-terminal amide) [Peptide No. 204] returned an IC50 of 2.2 µM.

B1: Peptide No. 167 (peptide)
peptide: QRFVTGHFG[dP]LYPVANGP-NH2
modifications: N-terminus assumed
SMILES: CC(C)C[C@H](NC(=O)[C@H]1CCCN1C(=O)CNC(=O)[C@H](Cc1ccccc1)NC(=O)[C@H](Cc1c[nH]cn1)NC(=O)CNC(=O)[C@@H](NC(=O)[C@@H](NC(=O)[C@H](Cc1ccccc1)NC(=O)[C@H](CCCNC(=N)N)NC(=O)[C@@H](N)CCC(N)=O)C(C)C)[C@@H](C)O)C(=O)N[C@@H](Cc1ccc(O)cc1)C(=O)N1CCC[C@H]1C(=O)N[C@H](C(=O)N[C@@H](C)C(=O)N[C@@H](CC(N)=O)C(=O)NCC(=O)N1CCC[C@H]1C(N)=O)C(C)C
notes: printed with -VA- before NGP
B1 registered an IC50 with soluble human FcRn [3] of 93 µM.

B2: Peptide No. 157 (peptide)
peptide: QRFVTGHFG[dP]LYPANGP-NH2
modifications: N-terminus assumed
SMILES: CC(C)C[C@H](NC(=O)[C@H]1CCCN1C(=O)CNC(=O)[C@H](Cc1ccccc1)NC(=O)[C@H](Cc1c[nH]cn1)NC(=O)CNC(=O)[C@@H](NC(=O)[C@@H](NC(=O)[C@H](Cc1ccccc1)NC(=O)[C@H](CCCNC(=N)N)NC(=O)[C@@H](N)CCC(N)=O)C(C)C)[C@@H](C)O)C(=O)N[C@@H](Cc1ccc(O)cc1)C(=O)N1CCC[C@H]1C(=O)N[C@@H](C)C(=O)N[C@@H](CC(N)=O)C(=O)NCC(=O)N1CCC[C@H]1C(N)=O
In turn, B2 registered an IC50 in the assay with soluble human FcRn [3] of 195 µM.

B3: Peptide No. 190 (peptide)
peptide: QRFVTGHFG[dP]WYPINGP-NH2
modifications: N-terminus assumed
SMILES: CC[C@H](C)[C@H](NC(=O)[C@@H]1CCCN1C(=O)[C@H](Cc1ccc(O)cc1)NC(=O)[C@H](Cc1c[nH]c2ccccc12)NC(=O)[C@H]1CCCN1C(=O)CNC(=O)[C@H](Cc1ccccc1)NC(=O)[C@H](Cc1c[nH]cn1)NC(=O)CNC(=O)[C@@H](NC(=O)[C@@H](NC(=O)[C@H](Cc1ccccc1)NC(=O)[C@H](CCCNC(=N)N)NC(=O)[C@@H](N)CCC(N)=O)C(C)C)[C@@H](C)O)C(=O)N[C@@H](CC(N)=O)C(=O)NCC(=O)N1CCC[C@H]1C(N)=O
With B3, in the assay with soluble human FcRn [3], the IC50 came to 49 µM.

B4: Peptide No. 176 (peptide)
peptide: QRFVTGHFG[dP]YYPANGP-NH2
modifications: N-terminus assumed
SMILES: CC(C)[C@H](NC(=O)[C@H](Cc1ccccc1)NC(=O)[C@H](CCCNC(=N)N)NC(=O)[C@@H](N)CCC(N)=O)C(=O)N[C@H](C(=O)NCC(=O)N[C@@H](Cc1c[nH]cn1)C(=O)N[C@@H](Cc1ccccc1)C(=O)NCC(=O)N1CCC[C@@H]1C(=O)N[C@@H](Cc1ccc(O)cc1)C(=O)N[C@@H](Cc1ccc(O)cc1)C(=O)N1CCC[C@H]1C(=O)N[C@@H](C)C(=O)N[C@@H](CC(N)=O)C(=O)NCC(=O)N1CCC[C@H]1C(N)=O)[C@@H](C)O
In the case of B4, the IC50 with soluble human FcRn [3] amounted to 230 µM.

B5: Peptide No. 175 (peptide)
peptide: QRFVTGHFG[dP]FYPANGP-NH2
modifications: N-terminus assumed
SMILES: CC(C)[C@H](NC(=O)[C@H](Cc1ccccc1)NC(=O)[C@H](CCCNC(=N)N)NC(=O)[C@@H](N)CCC(N)=O)C(=O)N[C@H](C(=O)NCC(=O)N[C@@H](Cc1c[nH]cn1)C(=O)N[C@@H](Cc1ccccc1)C(=O)NCC(=O)N1CCC[C@@H]1C(=O)N[C@@H](Cc1ccccc1)C(=O)N[C@@H](Cc1ccc(O)cc1)C(=O)N1CCC[C@H]1C(=O)N[C@@H](C)C(=O)N[C@@H](CC(N)=O)C(=O)NCC(=O)N1CCC[C@H]1C(N)=O)[C@@H](C)O
In the assay with soluble human FcRn [3], B5 gave a half-inhibitory concentration (IC50) of 200 µM.

B6: Peptide No. 168 (peptide)
peptide: QRFVTGHFG[dP]LYPLNGP-NH2
modifications: N-terminus assumed
SMILES: CC(C)C[C@H](NC(=O)[C@H]1CCCN1C(=O)CNC(=O)[C@H](Cc1ccccc1)NC(=O)[C@H](Cc1c[nH]cn1)NC(=O)CNC(=O)[C@@H](NC(=O)[C@@H](NC(=O)[C@H](Cc1ccccc1)NC(=O)[C@H](CCCNC(=N)N)NC(=O)[C@@H](N)CCC(N)=O)C(C)C)[C@@H](C)O)C(=O)N[C@@H](Cc1ccc(O)cc1)C(=O)N1CCC[C@H]1C(=O)N[C@@H](CC(C)C)C(=O)N[C@@H](CC(N)=O)C(=O)NCC(=O)N1CCC[C@H]1C(N)=O
The molecule B6 came in with an IC50 with soluble human FcRn [3] of 100 µM.

B7: Peptide No. 174 (peptide)
peptide: QRFVTGHFG[dP]IYPANGP-NH2
modifications: N-terminus assumed
SMILES: CC[C@H](C)[C@H](NC(=O)[C@H]1CCCN1C(=O)CNC(=O)[C@H](Cc1ccccc1)NC(=O)[C@H](Cc1c[nH]cn1)NC(=O)CNC(=O)[C@@H](NC(=O)[C@@H](NC(=O)[C@H](Cc1ccccc1)NC(=O)[C@H](CCCNC(=N)N)NC(=O)[C@@H](N)CCC(N)=O)C(C)C)[C@@H](C)O)C(=O)N[C@@H](Cc1ccc(O)cc1)C(=O)N1CCC[C@H]1C(=O)N[C@@H](C)C(=O)N[C@@H](CC(N)=O)C(=O)NCC(=O)N1CCC[C@H]1C(N)=O
For B7, the 50% inhibitory concentration (IC50) with soluble human FcRn [3] was 94 µM.

B8: Peptide No. 193 (peptide)
peptide: RFXTGHFXLYPC
modifications: Pen at 3; X at 8 = (3S)-3-amino-2-oxo-1-piperidine-acetic acid; disulfide; C-terminal amide
Turning to B8, the IC50 in the assay with soluble human FcRn [2] came to 7.3 µM.
For the molecule QRFXTGHXGGLYPCNGP (Pen at 4; 2-pyridylalanine at 8; disulfide; C-terminal amide) [Peptide No. 58], in the assay with soluble human FcRn [4], the IC50 is 90 µM.
On the same count and under the same terms, next, RFXTGHXGGLYPC (Pen at 3; 3-Cl-Phe at 7; disulfide; C-terminal amide) [Peptide No. 222]: 3.7 µM.

B9: Peptide No. 80 (as printed in Table 18) (peptide)
peptide: RFXTGHFXLYPC
modifications: Pen at 3; X at 8 = 3-amino-N-1-carboxymethyl-2,3,4,5-tetrahydro-1H-[1]-benzazepine-2-one (drawing CHEM-US-00083); disulfide; C-terminal amide
For B9, in the assay with soluble human FcRn [2], the IC50 was 159 µM.

B10: Peptide No. 181 (peptide)
peptide: RFXTGHFXLYPC
modifications: Pen at 3; X at 8 = 3-amino-N-1-carboxymethyl-2,3,4,5-tetrahydro-1H-[1]-benzazepine-2-one (drawing CHEM-US-00084); disulfide; C-terminal amide
B10 came in with an IC50 with soluble human FcRn [2] of 1.2 µM.
Regarding QRFXTGHXGGLYPCNGP (Pen at 4; 3-PyridylAla at 8; disulfide; C-terminal amide) [Peptide No. 59], binding with soluble human FcRn [1] was put at a Kd of 19 µM. Also, the IC50 with soluble human FcRn [4] stood at 60 µM.
Turning to QRFXTGHXGGLYPCNGP (Pen at 4; pentafluoro-Phe at 8; disulfide; C-terminal amide) [Peptide No. 57], the Kd in the assay with soluble human FcRn [1] is 70 µM.
QRFCTAHFGGLYPCNGP-NH2 (disulfide 4-14 (inferred)) [SEQ ID NO:28] registered an IC50 with soluble human FcRn [5] greater than 125 µM.
Take QRFCTGHFGGLAPCNGP-NH2 (disulfide 4-14 (inferred)) [SEQ ID NO:34]: in the assay with soluble human FcRn [5], the half-inhibitory concentration (IC50) is greater than 125 µM.
The same measure, in the same setting: next, QRFCTGAFGGLYPCNGP-NH2 (disulfide 4-14 (inferred)) [SEQ ID NO:29]: greater than 125 µM; QRFCTGHAGGLYPCNGP-NH2 (disulfide 4-14 (inferred)) [SEQ ID NO:30]: greater than 125 µM; QRFCTGHFGALYPCNGP-NH2 (disulfide 4-14 (inferred)) [SEQ ID NO:32]: greater than 125 µM.

B11: Peptide No. 198 (peptide)
peptide: RFXTGHFXLYPC
modifications: Pen at 3; X at 8 = 5,5-bicyclic dipeptide mimic (drawing CHEM-US-00086); disulfide; C-terminal amide
As for B11, the IC50 with soluble human FcRn [2] is 23 µM.

B12: Peptide No. 239 (peptide)
peptide: RFXTGHFXLYPC
modifications: Pen at 3; X at 8 = 3(S)-3-amino-2-oxo-1-azepine acetic acid; NMeLeu at 9; disulfide; C-terminal amide
In the case of B12, the IC50 with soluble human FcRn [2] was found to be 0.62 µM.
Take QRFXTGHXGGLYPCNGP (Pen at 4; 4-methoxy-Phe at 8; disulfide; C-terminal amide) [Peptide No. 56]: the affinity with soluble human FcRn [1], expressed as Kd, was 18 µM. The IC50 in the assay with soluble human FcRn [4] stood at 100 µM.
For the molecule RFXTGHXGGLYPC (Pen at 3; 2-Cl-Phe at 7; disulfide; C-terminal amide) [Peptide No. 221], in the assay with soluble human FcRn [4], the IC50 came out at 4 µM.
For the molecule QRFXTGHXGGLYPCNGP (Pen at 4; 2-napthylalanine at 8; disulfide; C-terminal amide) [Peptide No. 62], binding with soluble human FcRn [1] was characterised by a dissociation constant (Kd) of 11 µM. Besides, the IC50 with soluble human FcRn [4] came out at 90 µM.
For the molecule QRFXTGHXGGLYPCNGP (Pen at 4; 4-MePhe at 8; disulfide; C-terminal amide) [Peptide No. 90], the Kd with soluble human FcRn [1] came to 0.2 µM.
QRFXTGHWGGLYPCNGP (Pen at 4; disulfide; C-terminal amide) [Peptide No. 95] registered an IC50 with soluble human FcRn [4] of 26 µM.
Molecule QRFXTGHXGGLYPCNGP (Pen at 4; 2-MePhe at 8; disulfide; C-terminal amide) [Peptide No. 88] had a Kd in the assay with soluble human FcRn [1] of 0.2 µM. This molecule displayed a half-inhibitory concentration (IC50) with soluble human FcRn [4] of 1 µM.
Regarding QRFXTGHXGGLYPCNGP (Pen at 4; PheNHAc at 8; disulfide; C-terminal amide) [Peptide No. 94], the Kd in the assay with soluble human FcRn [1] worked out at 270 µM.

B13: Peptide No. 210 (peptide)
peptide: RFVTGHFG[dP]WYPANGP-NH2
modifications: N-terminus assumed
SMILES: CC(C)[C@H](NC(=O)[C@H](Cc1ccccc1)NC(=O)[C@@H](N)CCCNC(=N)N)C(=O)N[C@H](C(=O)NCC(=O)N[C@@H](Cc1c[nH]cn1)C(=O)N[C@@H](Cc1ccccc1)C(=O)NCC(=O)N1CCC[C@@H]1C(=O)N[C@@H](Cc1c[nH]c2ccccc12)C(=O)N[C@@H](Cc1ccc(O)cc1)C(=O)N1CCC[C@H]1C(=O)N[C@@H](C)C(=O)N[C@@H](CC(N)=O)C(=O)NCC(=O)N1CCC[C@H]1C(N)=O)[C@@H](C)O
In turn, B13 had an IC50 with soluble human FcRn [3] of 100 µM.
The molecule RFXTGHXGGLYPC (Pen at 3; 3,3-Di-Phe at 7; disulfide; C-terminal amide) [Peptide No. 224] registered a half-inhibitory concentration (IC50) in the assay with soluble human FcRn [4] of 32 µM.
